In experiment [1] the target is T1, human FAP (Homo sapiens, UniProt Q12884).
T1 sequence (Q12884 1-760): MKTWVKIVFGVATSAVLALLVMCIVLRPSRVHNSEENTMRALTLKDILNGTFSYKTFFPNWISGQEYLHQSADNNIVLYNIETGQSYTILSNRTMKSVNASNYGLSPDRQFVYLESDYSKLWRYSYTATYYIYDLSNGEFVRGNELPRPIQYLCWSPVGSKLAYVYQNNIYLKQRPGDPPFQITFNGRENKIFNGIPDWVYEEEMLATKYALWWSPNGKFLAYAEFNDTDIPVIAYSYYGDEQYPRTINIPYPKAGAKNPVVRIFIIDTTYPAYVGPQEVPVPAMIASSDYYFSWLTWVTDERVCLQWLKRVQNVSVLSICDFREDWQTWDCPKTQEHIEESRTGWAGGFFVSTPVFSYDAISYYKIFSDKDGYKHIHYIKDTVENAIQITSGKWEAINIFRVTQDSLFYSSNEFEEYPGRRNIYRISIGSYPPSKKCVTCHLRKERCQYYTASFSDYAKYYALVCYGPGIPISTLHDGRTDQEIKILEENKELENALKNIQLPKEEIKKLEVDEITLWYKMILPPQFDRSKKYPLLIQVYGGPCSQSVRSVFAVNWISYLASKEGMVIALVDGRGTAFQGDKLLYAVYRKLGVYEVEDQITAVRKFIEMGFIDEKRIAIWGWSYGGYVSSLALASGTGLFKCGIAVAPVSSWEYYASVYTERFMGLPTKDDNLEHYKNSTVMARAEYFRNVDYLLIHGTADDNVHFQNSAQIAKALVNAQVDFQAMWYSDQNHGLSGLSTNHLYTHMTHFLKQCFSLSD
Put plainly: BLI (Octet) binding kinetics pre- and post-TCO conjugation (Example 7, Table 17). The protocol:
Five VHHs binding the target (human FAP) with different dissociation rate constants were conjugated to TCO-NHS. Using the BLI technology on Octet system the binding kinetics towards human FAP were determined for each of the five VHHs pre- and post-TCO conjugation.
On the technique in general: BLI is a label-free optical method that tracks binding on a fibre tip over time.

Experiment [2] deals with T1, human FAP. Put plainly: BLI click reaction with Tz-R3B23 on TCO-VHHs bound to target, span (Example 7, Table 18). To be noted: for Span: signal difference vs assay buffer. As for the experimental part:
Next, Octet Streptavidin (SA) Biosensors were coated with 5 μg/mL biotinylated human FAP in assay buffer (HBS+0.5% BSA+0.1% Tween20) for 5 minutes. The sensors were then dipped in wells containing a 5 nM solution of the different VHHs (both TCO conjugated and unconjugated as control) for 20 minutes (association step) and further transferred to the assay buffer (dissociation step) for 30 minutes. After the dissociation phase, that simulates the lag time, the sensors were transferred to either a well containing 50 nM of a tetrazine-coupled, non-FAP binding R3B23 (Tz-R3B23) or to a well containing assay buffer as a control. This reaction was allowed to proceed for 20 minutes (experiment 1) or 30 minutes (experiment 2) after which the sensors were washed for 30 minutes in assay buffer. In the second experiment the TCO-VHHs were measured in duplicate (referred to as assay 1 and 2 of ‘experiment 2’ in the table below). Using the epitope binning function of ‘Octet Analysis Software’ we then determined the difference in signal between the VHHs incubated with Tz-R3B23 and the VHHs incubated with assay buffer. […] The span of unconjugated VHHs was considered as noise.

For experiment [3], the target named is T2, human fibroblast activation protein (FAP) (human, UniProt Q12884 26-760).
T2 construct: also called human FAP; hFAP
T2 sequence: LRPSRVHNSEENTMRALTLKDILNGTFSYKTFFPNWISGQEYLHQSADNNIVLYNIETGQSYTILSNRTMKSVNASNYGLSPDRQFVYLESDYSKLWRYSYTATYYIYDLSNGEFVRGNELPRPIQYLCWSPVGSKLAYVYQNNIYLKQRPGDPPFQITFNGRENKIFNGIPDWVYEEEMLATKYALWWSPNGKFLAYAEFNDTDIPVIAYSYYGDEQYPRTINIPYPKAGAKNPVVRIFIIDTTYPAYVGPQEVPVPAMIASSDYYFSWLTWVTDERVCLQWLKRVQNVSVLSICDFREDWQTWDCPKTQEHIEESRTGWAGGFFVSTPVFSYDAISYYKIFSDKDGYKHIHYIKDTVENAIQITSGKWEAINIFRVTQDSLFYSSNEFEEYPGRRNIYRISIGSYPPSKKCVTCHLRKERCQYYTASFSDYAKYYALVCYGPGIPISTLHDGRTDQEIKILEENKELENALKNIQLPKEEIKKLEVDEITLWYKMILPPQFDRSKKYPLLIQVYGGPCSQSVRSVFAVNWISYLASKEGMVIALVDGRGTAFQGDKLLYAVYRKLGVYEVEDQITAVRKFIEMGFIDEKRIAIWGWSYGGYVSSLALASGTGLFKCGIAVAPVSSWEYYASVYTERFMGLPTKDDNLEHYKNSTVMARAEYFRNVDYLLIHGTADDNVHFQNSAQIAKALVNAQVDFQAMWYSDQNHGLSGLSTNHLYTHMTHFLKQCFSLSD
As to the kind of experiment: BLI (Octet), kinetics to human FAP, pre TCO conjugation. The protocol:
Using the BLI technology on Octet system the binding kinetics towards human FAP were determined for each of the five VHHs pre- and post-TCO conjugation.

Setting [4] is: Experiment 1, click reaction with 50 nM Tz-R3B23 for 20 minutes.
Setting [5] is: Experiment 2, 1st assay, click reaction with 50 nM Tz-R3B23 for 30 minutes.
Where [6] appears, read: Experiment 2, 2nd assay, click reaction with 50 nM Tz-R3B23 for 30 minutes.

One may read the koff as the rate constant with which the complex falls apart. As usually defined, the kon is a measure of how fast the partners come together. For orientation: Kd means the free concentration of one partner at which half of the binding sites on the other are occupied at equilibrium, for simple one-to-one binding. Read a low Kd as higher affinity.

B1: VHH8: VHH, target FAP, SEQ ID NO 91 (protein)
VHH: QVQLQESGGGTVQPGGSLRLSCAASGISVSIASMAWYRQAPGKQRELVAGIISGGSTNYADSVKGRFTISRDNAKKVVLLQMNSLKPEDTAVYYCNTYPPFVGPGATATWGQGTQVTVSSAAAYPYDVPDYGSHHHHHH
For the molecule B1, the koff in experiment [1] (Post conjugation (TCO)) is 0.000559 s⁻¹; in experiment [1] (Pre conjugation (TCO)), 0.000679 s⁻¹. Besides, the on-rate constant (kon) turned out to be 833000 M⁻¹ s⁻¹ in experiment [1] (Post conjugation (TCO)) and 1.01e+06 M⁻¹ s⁻¹ in experiment [1] (Pre conjugation (TCO)). For the same molecule, the Span amounted to 0.0096 in experiment [2] (setting [4]) and 0.0028 in experiment [2] (setting [5]). Also, in experiment [2] (both experiments), the “span of unconjugated VHHs (noise)” value is “the highest”.

B2: TCO-VHH8 (conjugate)
VHH: QVQLQESGGGTVQPGGSLRLSCAASGISVSIASMAWYRQAPGKQRELVAGIISGGSTNYADSVKGRFTISRDNAKKVVLLQMNSLKPEDTAVYYCNTYPPFVGPGATATWGQGTQVTVSSAAAYPYDVPDYGSHHHHHH
modifications: cyclised or stapled
For the molecule B2, the values for the Span in experiment [2] (setting [4]), in experiment [2] (setting [5]) and in experiment [2] (setting [6]) were 0.0224, 0.0218 and 0.0341, respectively.

B3: VHH7 (VHH)
VHH: QVQLQESGGGLVQAGGSLRLSCTASGTFSGRNAMAWYRQAPGKRRELVAGIRSDDSTNYVDSVKGRFTISRDNAKNTVYLQMNSLRPEDTAVYYCNLWPPVIGAGFGSWGQGTQVTVSS
notes: Anti-FAP VHH, tested before TCO conjugation; also called unconjugated VHH7
Turning to B3, in experiment [3], binding was put at a Kd of 0.0819 nM, the off-rate constant (koff) was determined as 0.000197 s⁻¹ and the association rate constant (kon) is 2.4e+06 M⁻¹ s⁻¹.

B4: TCO-VHH9: TCO conjugated VHH9 (FAP binding) (conjugate)
VHH: QVQLQESGGGLVQSGGSLRLSCVASGSISSINAMGWYRQAPGNKREWVAGITSGGSTNYADAVLGRFSIFRDNPKNTVYLQMNSLKPEDTAVYYCNTWPPSTFGSWGQGTQVTVSSAAAYPYDVPDYGSHHHHHH
modifications: cyclised or stapled
B4: the Span came out at 0.0015 in experiment [2] (setting [4]), 0.0091 in experiment [2] (setting [5]) and 0.0113 in experiment [2] (setting [6]). In addition, the “click reaction (span versus noise value)” value in experiment [2] (experiment 1 (20 minutes Tz-R3B23)) was “no click reaction took place”; in experiment [2] (experiment 2 (30 minutes Tz-R3B23), both assays), “just above the noise value”.

B5: VHH9: VHH, target FAP, SEQ ID NO 92 (protein)
VHH: QVQLQESGGGLVQSGGSLRLSCVASGSISSINAMGWYRQAPGNKREWVAGITSGGSTNYADAVLGRFSIFRDNPKNTVYLQMNSLKPEDTAVYYCNTWPPSTFGSWGQGTQVTVSSAAAYPYDVPDYGSHHHHHH
As for B5, the off-rate (koff) in experiment [1] (Post conjugation (TCO)) is 0.0012 s⁻¹; in experiment [1] (Pre conjugation (TCO)) it was 0.0018 s⁻¹. For the same molecule, the on-rate (kon) was 1.26e+06 M⁻¹ s⁻¹ in experiment [1] (Post conjugation (TCO)) and 3.98e+06 M⁻¹ s⁻¹ in experiment [1] (Pre conjugation (TCO)). Also, the Span in experiment [2] (setting [4]) is given as 0.0040; in experiment [2] (setting [5]), −0.0008.

B6: VHH1 (VHH)
VHH: DVQLVESGGGLVQPGGSLRLSCVASGRLSSSNSMAWYRQVPGKRRELVAGITGGGETNYADFVGGRFTISRDNAKNGLYLQLNGLKPEDTAAYYCNFWPPLINYWGQGTQVTVSS
notes: Anti-FAP VHH, tested before TCO conjugation; also called VHH VHH1; unconjugated VHH1
In experiment [3], B6 gave a dissociation constant (Kd) of 0.0482 nM, a koff of 8.52e-05 s⁻¹ and a kon of 1.77e+06 M⁻¹ s⁻¹.

B7: VHH1: VHH, target FAP, SEQ ID NO 4 (protein)
VHH: DVQLVESGGGLVQPGGSLRLSCVASGRLSSSNSMAWYRQVPGKRRELVAGITGGGETNYADFVGGRFTISRDNAKNGLYLQLNGLKPEDTAAYYCNFWPPLINYWGQGTQVTVSS
modifications: VHH1
Turning to B7, the koff in experiment [1] (Post conjugation (TCO)) amounted to 4.99e-05 s⁻¹; in experiment [1] (Pre conjugation (TCO)), 8.52e-05 s⁻¹. Further, the values for the on-rate (kon) in experiment [1] (Post conjugation (TCO)) and in experiment [1] (Pre conjugation (TCO)) were 694000 M⁻¹ s⁻¹ and 1.77e+06 M⁻¹ s⁻¹, respectively. The Span is listed as 0.0089 in experiment [2] (setting [4]) and 0.0004 in experiment [2] (setting [5]).

B8: TCO-VHH1: VHH1, functionalized with transcyclooctene (TCO) (conjugate)
VHH: DVQLVESGGGLVQPGGSLRLSCVASGRLSSSNSMAWYRQVPGKRRELVAGITGGGETNYADFVGGRFTISRDNAKNGLYLQLNGLKPEDTAAYYCNFWPPLINYWGQGTQVTVSS
modifications: cyclised or stapled
Take B8: the Span in experiment [2] (setting [4]) was 0.0237; in experiment [2] (setting [5]), 0.0334; in experiment [2] (setting [6]), 0.0257.

B9: VHH7: VHH, target FAP, SEQ ID NO 90 (protein)
VHH: QVQLQESGGGLVQAGGSLRLSCTASGTFSGRNAMAWYRQAPGKRRELVAGIRSDDSTNYVDSVKGRFTISRDNAKNTVYLQMNSLRPEDTAVYYCNLWPPVIGAGFGSWGQGTQVTVSSAAAYPYDVPDYGSHHHHHH
In the case of B9, the koff in experiment [1] (Post conjugation (TCO)) was 0.000123 s⁻¹; in experiment [1] (Pre conjugation (TCO)) it was 0.000197 s⁻¹. In addition, the values for the kon in experiment [1] (Post conjugation (TCO)) and in experiment [1] (Pre conjugation (TCO)) were 746000 M⁻¹ s⁻¹ and 2.4e+06 M⁻¹ s⁻¹, respectively. In addition, the Span in experiment [2] (setting [4]) is on record as 0.0082; in experiment [2] (setting [5]), 0.0018.

B10: TCO-VHH7 (conjugate)
VHH: QVQLQESGGGLVQAGGSLRLSCTASGTFSGRNAMAWYRQAPGKRRELVAGIRSDDSTNYVDSVKGRFTISRDNAKNTVYLQMNSLRPEDTAVYYCNLWPPVIGAGFGSWGQGTQVTVSSAAAYPYDVPDYGSHHHHHH
modifications: cyclised or stapled
For the molecule B10, the Span in experiment [2] (setting [4]) was 0.0145; in experiment [2] (setting [5]) it was 0.0186; in experiment [2] (setting [6]) it was 0.0230.

B11: VHH8 (VHH)
VHH: QVQLQESGGGTVQPGGSLRLSCAASGISVSIASMAWYRQAPGKQRELVAGIISGGSTNYADSVKGRFTISRDNAKKVVLLQMNSLKPEDTAVYYCNTYPPFVGPGATATWGQGTQVTVSS
notes: Anti-FAP VHH, tested before TCO conjugation; also called unconjugated VHH8
In experiment [3], B11 gave a Kd of 0.672 nM, a koff of 0.000679 s⁻¹ and a kon of 1.01e+06 M⁻¹ s⁻¹.

B12: VHH6: VHH, target FAP, SEQ ID NO 89 (protein)
VHH: DVQLVESGGGLVQAGGSLRLSCAVSGSISSANSMGWYRQAPGKQRDVVAGLTTGGRSHYADSVKGRFTISRDNAKNTVYLQMNSLKAEDTAVYYCNLWPPVQGYWGQGTQVTVSS
As to B12, the koff in experiment [1] (Post conjugation (TCO)) was determined as 0.000157 s⁻¹; in experiment [1] (Pre conjugation (TCO)), 0.000188 s⁻¹. Moreover, the values for the kon in experiment [1] (Post conjugation (TCO)) and in experiment [1] (Pre conjugation (TCO)) were 1.07e+06 M⁻¹ s⁻¹ and 3.41e+06 M⁻¹ s⁻¹, respectively. The results for the Span in experiment [2] (setting [4]) and in experiment [2] (setting [5]) were 0.0021 and 0.0017, respectively.

Source of the values: patent US20250122304A1, “PRE-TARGETING” (Precirix N.V., priority 2022, published 2025).
